Molecular target: T1, 6×His-tagged Kv3.1 T1 domain (His-31T1) (UniProt P25122 1-190)
T1 sequence (looked up): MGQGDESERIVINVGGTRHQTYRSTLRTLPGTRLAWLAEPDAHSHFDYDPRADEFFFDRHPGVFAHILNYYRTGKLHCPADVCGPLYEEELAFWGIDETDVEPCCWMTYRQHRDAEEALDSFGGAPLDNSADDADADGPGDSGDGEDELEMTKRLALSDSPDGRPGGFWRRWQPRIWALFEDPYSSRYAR
Experiment: SPR

B1: GST-fused MAP6 Mn modules (GST-M115–221; aa 115–221 from MAP6N) (domain or fragment, UniProt Q63560 115-221, looked up)
chain: ADSVMRQDYRAWKVQRPEPSCRPRSEYQPSDAPFERETQYQKDFRAWPLPRRGDHPWIPKPVQIPATSQPSPPVLGMPKRRPQSQERGPIQLSADARDPEGAGGAGV
Kd: 62.5 ± 18.4 nM

Source: article PMC10905646 (Molecular psychiatry, 2023)
